Experiments:
Conditions in all cases: remark: other sources report otherwise
[1] = molecular target: T1, recombinant soluble homotrimeric HA of A/Netherlands/219/03 (H7N7) (Influenza A virus A/Netherlands/219/03(H7N7)); test: HA microarray, BCC supernatant
[2] = molecular target: recombinant soluble homotrimeric HA of A/Japan/305/57 (H2N2) (Influenza A virus A/Japan/305/1957(H2N2)); test: HA microarray, BCC supernatant
[3] = molecular target: T2, recombinant soluble homotrimeric HA of A/Vietnam/1203/04 (H5N1) (Influenza A virus A/VietNam/1203/2004(H5N1)); test: HA microarray, BCC supernatant
[4] = molecular target: T3, recombinant soluble homotrimeric HA of A/duck/Yangzhou/02/05 (H8N4) (Influenza A virus A/duck/Yangzhou/02/2005(H8N4)); test: HA microarray, BCC supernatant
[5] = molecular target: T4, recombinant soluble homotrimeric HA of A/swine/Ontario/01911-2/99 (H4N6) (Influenza A virus A/Swine/Ontario/01911-2/99 (H4N6)); test: HA microarray, BCC supernatant
[6] = molecular target: recombinant soluble homotrimeric HA of A/Indonesia/5/05 (H5N1) (Influenza A virus A/Indonesia/5/2005(H5N1)); test: trimeric HA microarray, transfection supernatant set 5
[7] = molecular target: recombinant soluble homotrimeric HA of A/South Carolina/1/18 (H1N1) (Influenza A virus A/South Carolina/1/18 (H1N1)); test: as above
[8] = molecular target: recombinant soluble homotrimeric HA of A/Egypt/3300-NAMRU3/08 (H5N1) (Influenza A virus A/Egypt/3300-NAMRU3/2008(H5N1)); test: as above
[9] = molecular target: T2, recombinant soluble homotrimeric HA of …; test: as above
[10] = molecular target: T5, recombinant soluble homotrimeric HA of A/chicken/Vietnam/NCVD-016/08 (H5N1) (Influenza A virus A/chicken/Vietnam/NCVD-016/2008(H5N1)); test: as above
[11] = molecular target: recombinant soluble homotrimeric HA of A/Anhui/1/05 (H5N1) (Influenza A virus A/Anhui/1/2005(H5N1)); test: as above
[12] = molecular target: recombinant soluble homotrimeric HA of A/Hong Kong/156/97 (H5N1) (Influenza A virus A/Hong Kong/156/97 (H5N1)); test: as above
[13] = molecular target: T3, recombinant soluble homotrimeric HA of …; test: as above
[14] = molecular target: T4, recombinant soluble homotrimeric HA of …; test: as above
[15] = molecular target: recombinant soluble homotrimeric HA of A/northern shoveler/California/HKWF115/07 (H6) (Influenza A virus A/northern shoveler/California/HKWF115/2007(H6N1)); test: as above
[16] = molecular target: recombinant homotrimeric HA A/Egypt/3300-NAMRU3/08 H5N1 (Influenza A virus A/Egypt/3300-NAMRU3/2008(H5N1)); test: protein microarray, purified IgG, trimeric HA
[17] = molecular target: recombinant homotrimeric HA A/Japan/305/57 H2N2 (Influenza A virus A/Japan/305/1957(H2N2)); test: protein microarray, purified IgG, trimeric HA
[18] = molecular target: recombinant homotrimeric HA A/Anhui/1/05 H5N1 (Influenza A virus A/Anhui/1/2005(H5N1)); test: protein microarray, purified IgG, trimeric HA
[19] = molecular target: recombinant homotrimeric HA A/duck/Yangzhou/02/05 H8N4 (Influenza A virus A/duck/Yangzhou/02/2005(H8N4)); test: protein microarray, purified IgG, trimeric HA
[20] = molecular target: recombinant homotrimeric HA A/Hong Kong/1073/99 H9N2 (Influenza A virus A/Hong Kong/1073/99 (H9N2)); test: protein microarray, purified IgG, trimeric HA
[21] = molecular target: recombinant homotrimeric HA A/Vietnam/1203/04 H5N1 (Influenza A virus A/VietNam/1203/2004(H5N1)); test: protein microarray, purified IgG, trimeric HA
[22] = molecular target: recombinant homotrimeric HA A/Indonesia/5/05 H5N1 (Influenza A virus A/Indonesia/5/2005(H5N1)); test: protein microarray, purified IgG, trimeric HA
[23] = molecular target: recombinant homotrimeric HA A/South Carolina/1/18 H1N1 (Influenza A virus A/South Carolina/1/18 (H1N1)); test: protein microarray, purified IgG, trimeric HA
[24] = molecular target: recombinant homotrimeric HA A/California/4/09 H1N1 (Influenza A virus A/California/04/2009(H1N1)); test: protein microarray, purified IgG, trimeric HA
[25] = molecular target: recombinant homotrimeric HA A/Hong Kong/156/97 H5N1 (Influenza A virus A/Hong Kong/156/97 (H5N1)); test: protein microarray, purified IgG, trimeric HA
[26] = molecular target: recombinant soluble homotrimeric HA of A/Solomon Islands/3/06 (H1N1) (Influenza A virus A/Solomon Islands/3/2006(H1N1)); test: HA microarray, BCC supernatant
[27] = molecular target: T6, recombinant soluble homotrimeric HA of A/Wisconsin/67/05 (H3N2) (Influenza A virus A/Wisconsin/67/2005(H3N2)); test: HA microarray, BCC supernatant
[28] = molecular target: T1, recombinant soluble homotrimeric HA of …; test: trimeric HA microarray, transfection supernatant set 2
[29] = molecular target: T6, recombinant soluble homotrimeric HA of …; test: as above
[30] = molecular target: T5, recombinant soluble homotrimeric HA of …; test: as above
[31] = molecular target: T3, recombinant soluble homotrimeric HA of …; test: as above
[32] = molecular target: recombinant soluble homotrimeric HA of A/California/4/09 (H1N1) (Influenza A virus A/California/04/2009(H1N1)); test: as above
[33] = molecular target: recombinant homotrimeric HA A/Solomon Islands/3/06 H1N1 (Influenza A virus A/Solomon Islands/3/2006(H1N1)); test: protein microarray, purified IgG, trimeric HA
[34] = molecular target: recombinant homotrimeric HA A/Wisconsin/67/05 H3N2 (Influenza A virus A/Wisconsin/67/2005(H3N2)); test: protein microarray, purified IgG, trimeric HA

B1: TCN-542 (5079_A16) (antibody, V domains shown)
VH: QVQLQESGPGLVKPSQTLSLTCTVSGGSISSGNYYWNWVRQHPGKGLEWIGYIYYRGSTFYNPSLKSRVTISIDTSKNQFSLRLSSVTAADTAVYYCAKDTRSSLDNYQYGMDVWGQGTTVTVSS
VL: QTVVTQEPSLTVSPGGTVTLTCASSTGAVTSSYFPNWFQQKPGQAPRPLIYSTTIRHSWTPARFSGSLLGGKAALTLSGVQPEDEADYYCLLYSGGDPVAFGGGTKLTVL
- Trimeric HA Binding: RLU [1]: 909 RLU
- Trimeric HA Binding: RLU [2]: 142 RLU
- Trimeric HA Binding: RLU [3]: 306 RLU
- Trimeric HA Binding: RLU [4]: 332 RLU
- Trimeric HA Binding: RLU [5]: 350 RLU
- Trimeric HA Binding: RLU [6]: 1760 RLU
- Trimeric HA Binding: RLU [7]: 1120 RLU
- Trimeric HA Binding: RLU [8]: 14800 RLU
- Trimeric HA Binding: RLU [9]: 29500 RLU
- Trimeric HA Binding: RLU [10]: 5460 RLU
- Trimeric HA Binding: RLU [11]: 7410 RLU
- Trimeric HA Binding: RLU [12]: 786 RLU
- Trimeric HA Binding: RLU [13]: 11600 RLU
- Trimeric HA Binding: RLU [14]: 14300 RLU
- Trimeric HA Binding: RLU [15]: 2370 RLU
- Trimeric HA Binding: RLU [16]: 730 RLU
- Trimeric HA Binding: RLU [17]: 502 RLU
- Trimeric HA Binding: RLU [18]: 10500 RLU
- Trimeric HA Binding: RLU [19]: 182 RLU
- Trimeric HA Binding: RLU [20]: 588 RLU
- Trimeric HA Binding: RLU [21]: 1060 RLU
- Trimeric HA Binding: RLU [22]: 108 RLU
- Trimeric HA Binding: RLU [23]: 117 RLU
- Trimeric HA Binding: RLU [24]: 238 RLU
- Trimeric HA Binding: RLU [25]: 894 RLU

B2: TCN-526 (5084_C17) (antibody, V domains shown)
VH: EVLMVESGGGLVQPGGSVRLSCVASGFSFSSHWMTWVRQAPGKGLEWVANIEDDGGDKYYVDSVKGRFIISRDNAKNSVYLQMNSLRAEDTAVYFCARGSGSSDRSDYDPHYYYYLDVWGKGATVTVSS
VL: DIQLTQSPSSLSASVGDRVTITCRASQSISRYLNWYQQKPGKAPKLLLFAASTLLDGVPSRFSGSGSGTDFTLTISSLQPEDFATYYCQRNHSPSWTFGQGTRVEIK
- Trimeric HA Binding: RLU [1]: 1340 RLU
- Trimeric HA Binding: RLU [26]: 341 RLU
- Trimeric HA Binding: RLU [2]: 246 RLU
- Trimeric HA Binding: RLU [27]: 49300 RLU
- Trimeric HA Binding: RLU [4]: 596 RLU
- Trimeric HA Binding: RLU [28]: 5660 RLU
- Trimeric HA Binding: RLU [29]: 27800 RLU
- Trimeric HA Binding: RLU [30]: 3290 RLU
- Trimeric HA Binding: RLU [31]: 4300 RLU
- Trimeric HA Binding: RLU [32]: 3600 RLU
- Trimeric HA Binding: RLU [33]: 804 RLU
- Trimeric HA Binding: RLU [17]: 642 RLU
- Trimeric HA Binding: RLU [34]: 26600 RLU
- Trimeric HA Binding: RLU [23]: 87 RLU
- Trimeric HA Binding: RLU [24]: 620 RLU
